Data taken from the supplement of paper PMC10567573.
± gives the standard deviation.

Assay: protein stability index of a GFP-peptide fusion (GPS, HEK-293T) (PSI 1-6); higher = more stable
Conditions: c terminus: a fixed tail appended
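Note: 24-mer peptide tiles fused after GFP, lentivirally expressed, FACS-sorted into six equal bins by GFP/DsRed ratio, decoded by Illumina sequencing, PSI is the read-weighted mean bin number.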

Row | Sequence | protein stability index (treatment: DMSO) | protein stability index (treatment: MLN4924 1 uM, 8 h)
1 | SGGHERSRDRRRSSDRSRDSSHER [BTBD10] | 5.48 ± 0.18 | 5.59 ± 0.19
2 | ADYFATFVQREEQLQFLIRYHRFI [CDS1] | 2.2 ± 0.54 | 2.37 ± 0.27
3 | SELRRTMQALEIELQSQLSMKASL [KRT17] | 2.46 ± 0.21 | 2.23 ± 0.2
4 | FNDVAKFLKQGDSADETTAHKTEE [CMTM3] | 4.97 ± 0.23 | 5.13 ± 0.12
5 | DGIDRWIKEIDEHAPGVPRILVGN [RAB40C] | 3.81 ± 0.19 | 3.59 ± 0.26
6 | HVFQRQKSELSDGIAILVGSNDRV [TRIM55] | 3.18 ± 0.25 | 3.21 ± 0.21
7 | GGFMGYSAENIPGCSSSGSCSQGS [CRY1] | 4.14 ± 0.3 | 4.4 ± 0.28
8 | PFRGDEGIFEESFIEERRQGLEQF [SNX12] | 4.518 ± 0.041 | 4.42 ± 0.18
9 | PGRLTEALCLEVRPTYFEMKNEKL [RNF180] | 4.9 ± 0.21 | 4.9 ± 0.15
10 | TFALYKNGSSEKREVRQFQFTAWP [PTPRD] | 2.29 ± 0.22 | 2.46 ± 0.18
11 | YGEFYKSLTNDWEDHLAVKHFSVE [HSP90AB1] | 2.46 ± 0.31 | 2.87 ± 0.28
12 | MAGTNALLMLENFIDGKFLPCSSY [ALDH8A1] | 2.19 ± 0.35 | 2.12 ± 0.26
